To fix the notation:
T1: Aacec B (cecropin B) peptide (Aedes aegypti)
T1 sequence: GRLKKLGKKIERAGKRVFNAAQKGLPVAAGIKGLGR

T2: Aacec B (cecropin B) peptide (Aedes aegypti)
T2 chain: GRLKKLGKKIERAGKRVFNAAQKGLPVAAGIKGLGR

B1: AaPPO 3-Cu A1 oligo (TTGGCA) (dsDNA)
DNA 1: CATGCACCATTGGCACTGGCATTTA
DNA 2: TAAATGCCAGTGCCAATGGTGCATG
B2: AaPPO 3-5' end-1-2 oligo (TTGGAA) (dsDNA)
DNA 1: GTTCGAAATGTTGGAATCCCGGATC
DNA 2: GATCCGGGATTCCAACATTTCGAAC
B3: AaPPO 3-Cu B3 oligo (TTGGCA) (dsDNA)
DNA 1: GTTCTATCGTTGGCACGGAATGATC
DNA 2: GATCATTCCGTGCCAACGATAGAAC
B4: AaPPO 3-Cu B2 oligo (TTGGAA) (dsDNA)
DNA 1: GAGTATCGGTACTTGGAAGATTTTG
DNA 2: CAAAATCTTCCAAGTACCGATACTC
B5: nucleotide replacement 1 (TT to CC) (dsDNA)
DNA 1: TCGAAATGCCGGAATCCCGG
DNA 2: CCGGGATTCCGGCATTTCGA
B6: nucleotide replacement 2 (GG to TA) (dsDNA)
DNA 1: TCGAAATGTTTAAATCCCGG
DNA 2: CCGGGATTTAAACATTTCGA
B7: nucleotide replacement 3 ((A/C)A to TA) (dsDNA)
DNA 1: TCGAAATGTTGGTATCCCGG
DNA 2: CCGGGATACCAACATTTCGA
B8: nucleotide replacement 4 ((A/C)A to CG) (dsDNA)
DNA 1: TCGAAATGTTGGCGTCCCGG
DNA 2: CCGGGACGCCAACATTTCGA

In the first data set the test system is T1, Aacec B (cecropin B) peptide (Aedes aegypti). The experiment in a line: pull-down.
Details: not given
For “GCCTACATTCACGATCCTGAGTATCGGTACTTGGAAGATTTTGGAGTAATGGG (double strand) [Cu B2 fragment]”, the binding result is given as “binds”.

In the case of “GTTAGCTGGCGATTTGCAGAGCAGGTTCACGAGTGGCGCGGAGGTCGAAATTCCGGTTCGAAATGTTGGAATCCCGGATCTTGCCTTTGCGGAG (double strand) [5' end-1-2 fragment]”, the binding result is “binds”. On the same count and under the same terms, next, “ATAACGAGAAATGATTTGGCTGTGCATATAGTAGAAAAGTTCACCACGGCGATCTTTCTTAGCAATTTCCGGTGGCGCCCCAGCAGGATACACTAAATGCCAGTGCCAATGGTGCATGTTGACTCCGATGTCCTCACGGAAGTATGCCAT (double strand) [Cu A fragment]”: “binds”. In the case of “ATGGCATACTTCCGTGAGGACATCGGAGTCAACATGCACCATTGGCACTGGCATTTAGT (double strand) [Cu A1 fragment]”, the binding result is listed as “binds”. Take “AACAAGCCATCGATCATTCCGTGCCAACGATAGAACACAGGATCACGCATTGCCGTTGTCACGTCACCCATTACTCCAAAATCTTCCAAGTACCGATACTCAGGATCGTGAATGTAGGCCAAAAAATCATGTCCAAAGTTATGCAAACTCCCATACAACCTCCTGTTGACGGAAAGCGTGGAAGCTTCAACCAAGTCACCTAAAAT (double strand) [Cu B fragment]”: the binding result is listed as “binds”.

Turning to “CTCCGCAAAGGCAAGATCCGGGATTCCAACATTTCGAACCGGAATTTCGACCTCCGCGCCACTCGTGAACCTGCTCTGCAAATCGCCAGCTAACGGACGATAACGATCACTCAAATACTCGTCCGGAATTATGAGCGATGTTTTACCATCGTCCTTTGGCATAAACGATGGCTCCAGAGGGCGTTGCAGAAGCGCTTGGAAAGATTTACTCTCAGCCATCTTTTAACAACAAAACAATGCGTTTCCGTACGATAGCTATCGATTGGAGATTGG (double strand) [5' end-1 fragment]”, the binding entry was “binds”. For “TGACGTGACAACGGCAATGCGTGATCCTGTGTTCTATCGTTGGCACGGAATGATCGATGGCTTGT (double strand) [Cu B3 fragment]”, the binding result was “binds”.

The next data set has as its target T2, Aacec B (cecropin B) peptide. As to the kind of experiment: EMSA; 1 ng peptide; EMSA: 6% native polyacrylamide gel, LightShift chemiluminescent kit; buffer, salt, pH and temperature not given in the material (cited to earlier work). The settings on record: tags: none stated for EMSA; conjugated to beads for pull-down; label: biotin end label; blunt.
Consider B1, for which the binding result is on record as “binds”.

In the case of B2, the binding result is “binds”. Regarding B3, the binding result is on record as “binds”. In the case of B4, the binding result is “binds”.

The target is the same in another data set. As to the kind of experiment: EMSA; EMSA: 6% native polyacrylamide gel, LightShift chemiluminescent kit; buffer, salt, pH and temperature not given in the material (cited to earlier work). The conditions noted are these: tags: none stated for EMSA; conjugated to beads for pull-down; label: biotin; blunt.
As for B5, the binding result is listed as “no binding”. On to B6, for which the binding result is “no binding”. Still for that read-out and setting: as for B7, the entry is “no binding”.

Take B8: the binding result is listed as “no binding”.

Values taken from paper PMC5703890, “Involvement of cecropin B in the formation of the Aedes aegypti mosquito cuticle”.
